{
  "source": "FireProtDB (doi:10.1093/protein/14.12.967)",
  "parents": {"B1": {"name": "Lysozyme C, milk isozyme, P81708 (parent)", "chain": "KIFSKCELARKLKSMGMDGFHGYSLANWVCMAEYESNFNTQAFNGRNSNGSSDYGIFQLNSKWWCKSNSHSSANACNIMCSKFLDDNIDDDIACAKRVVKDPNGMSAWVAWVKHCKGKDLSKYLASCNL"}},
  "variants_of": "B1",
  "settings": "Canis lupus familiaris, pH 4.5, Thermal, DSC, sodium acetate 50 mM, reversible: yes, structure 1EL1, whole UniProt chain shown",
  "note": "“And” between values parts separate entries of the source, which are not always exact repeats. Equal entries are not always repeated.",
  "data": [
    {"variant": "A93S", "values": [
      {"measurement": "ddG of mutation (higher = less stable)", "setting": "66.4 °C", "value": 0.26, "unit": "kcal/mol"},
      {"measurement": "unfolding enthalpy (calorimetric)", "setting": "66.4 °C", "value": 32, "unit": "kcal/mol"},
      {"measurement": "unfolding free energy", "setting": "66.4 °C", "value": 1.89, "unit": "kcal/mol"},
      {"measurement": "change of melting temperature, mutant - wild type (higher = more stable)", "setting": "transition: 3", "value": -2.59, "unit": "°C"},
      {"measurement": "unfolding enthalpy (calorimetric)", "setting": "transition: 3", "value": "39.6 kcal/mol and 43.8 kcal/mol"}
    ]},
    {"variant": "I56L", "values": [
      {"measurement": "ddG of mutation (higher = less stable)", "setting": "66.4 °C", "value": 0.24, "unit": "kcal/mol"},
      {"measurement": "unfolding enthalpy (calorimetric)", "setting": "66.4 °C", "value": 31.8, "unit": "kcal/mol"},
      {"measurement": "unfolding free energy", "setting": "66.4 °C", "value": 1.91, "unit": "kcal/mol"},
      {"measurement": "change of melting temperature, mutant - wild type (higher = more stable)", "setting": "transition: 3", "value": -2.44, "unit": "°C"},
      {"measurement": "unfolding enthalpy (calorimetric)", "setting": "transition: 3", "value": "23.8 kcal/mol and 43.8 kcal/mol"}
    ]},
    {"variant": "V109K", "values": [
      {"measurement": "ddG of mutation (higher = less stable)", "setting": "66.4 °C", "value": 0.43, "unit": "kcal/mol"},
      {"measurement": "unfolding enthalpy (calorimetric)", "setting": "66.4 °C", "value": 31.9, "unit": "kcal/mol"},
      {"measurement": "unfolding free energy", "setting": "66.4 °C", "value": 1.72, "unit": "kcal/mol"},
      {"measurement": "change of melting temperature, mutant - wild type (higher = more stable)", "setting": "transition: 3", "value": -4.16, "unit": "°C"},
      {"measurement": "unfolding enthalpy (calorimetric)", "setting": "transition: 3", "value": "43.8 kcal/mol and 42.8 kcal/mol"}
    ]},
    {"variant": "H21G", "values": [
      {"measurement": "ddG of mutation (higher = less stable)", "setting": "66.4 °C", "value": 0.48, "unit": "kcal/mol"},
      {"measurement": "unfolding enthalpy (calorimetric)", "setting": "66.4 °C", "value": 29.1, "unit": "kcal/mol"},
      {"measurement": "unfolding free energy", "setting": "66.4 °C", "value": 1.67, "unit": "kcal/mol"},
      {"measurement": "change of melting temperature, mutant - wild type (higher = more stable)", "setting": "transition: 3", "value": -3.28, "unit": "°C"},
      {"measurement": "unfolding enthalpy (calorimetric)", "setting": "transition: 3", "value": "29.9 kcal/mol and 40.6 kcal/mol"}
    ]}
  ]
}
